Laboratory results taken from paper PMC11783452 (iScience, 2024).

Target: prefusion-stabilized MERS-CoV spike protein, MERS S-2P (MERS-CoV, England1 (isolate United …, UniProt K9N5Q8, stabilised))
Test: negative-stain EM

B1: Anti-MERS-CoV S antibody CDC2-A2, Fab (Fab, V domains shown)
VH: QVQLVESGGGLVKPGGSLRLSCAASGFTFSDYYMSWIRQAPGKGLEWVSYISSSGSTIYYADSVKGRFTISRDNAKNSLYLQMNSLRAEDTAVYYCARVGLGSGWYDWFDPWGQGTLVTVSS
VL: QSALTQPPSVSGAPGQRVTISCTGSSSNIGASYDVHWYQHLPGTAPKLLIYGNTNRPSGVPDRFSGSKSGTSASLAITGLQAEDEADYYCQSYDSSLSGVVFSGGTKLTVL
- binding result: binds
